Data published in publication PMC11500415, “Chemical inhibition of stomatal differentiation by perturbation of the master-regulatory bHLH heterodimer via an ACT-Like domain” (Nature Communications, 2024).
Residue numbers refer to the chain shown, from its start. Names may count otherwise. “And” between values parts separate entries of the source, which are not always exact repeats. Identical values can stand only once.

T1: SCREAM (SCRM), recombinant full-length protein (1-494) (A. thaliana, UniProt Q9LSE2 1-494)
T1 construct: SCRM (ICE1), A. thaliana, residues 1-494; called full-length in the results; The methods describe thrombin removal of GST for all recombinant proteins; For the BLI runs of SCRM with MUTE one partner must have kept GST (anti-GST probes); also called ICE1; source: E. coli BL21, purified (glutathione resin, thrombin digestion, Superdex-200); not shown: GST, N-terminal, cleaved
T1 sequence (looked up): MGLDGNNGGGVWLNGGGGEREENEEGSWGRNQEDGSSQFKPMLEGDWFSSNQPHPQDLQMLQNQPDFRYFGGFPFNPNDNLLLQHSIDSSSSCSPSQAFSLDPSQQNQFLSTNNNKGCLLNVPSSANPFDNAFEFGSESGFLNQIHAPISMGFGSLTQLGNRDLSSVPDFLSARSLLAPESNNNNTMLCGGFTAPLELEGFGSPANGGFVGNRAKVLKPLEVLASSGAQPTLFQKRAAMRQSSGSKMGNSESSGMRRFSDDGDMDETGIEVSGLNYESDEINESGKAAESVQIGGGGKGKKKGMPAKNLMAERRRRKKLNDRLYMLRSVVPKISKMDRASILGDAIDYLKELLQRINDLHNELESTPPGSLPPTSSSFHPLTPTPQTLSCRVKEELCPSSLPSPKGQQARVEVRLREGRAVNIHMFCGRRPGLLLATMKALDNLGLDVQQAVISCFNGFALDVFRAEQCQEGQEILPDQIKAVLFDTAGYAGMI

B1: MUTE, recombinant full-length protein (1-202), as used in BLI with SCRM (natural protein, A. thaliana, UniProt Q9M8K6 1-202, looked up)
chain: MSHIAVERNRRRQMNEHLKSLRSLTPCFYIKRGDQASIIGGVIEFIKELQQLVQVLESKKRRKTLNRPSFPYDHQTIEPSSLGAATTRVPFSRIENVMTTSTFKEVGACCNSPHANVEAKISGSNVVLRVVSRRIVGQLVKIISVLEKLSFQVLHLNISSMEETVLYFFVVKIGLECHLSLEELTLEVQKSFVSDEVIVSTN
notes: BLI probes were anti-GST and loaded with 500 nM GST-tagged protein; source: E. coli BL21, purified (glutathione resin)
B2: MUTE_R133A_R134A, recombinant (natural protein, A. thaliana, UniProt Q9M8K6 1-202, looked up)
chain: B1 chain with R133A, R134A
notes: MUTE, A. thaliana, with R133A and R134A; source: E. coli BL21, purified (glutathione resin)
B3: MUTE_E162A_E163A, recombinant (natural protein, A. thaliana, UniProt Q9M8K6 1-202, looked up)
chain: B1 chain with E162A, E163A
notes: MUTE, A. thaliana, with E162A and E163A; source: E. coli BL21, purified (glutathione resin)
B4: MUTE_R133A_R134A_E162A_E163A, recombinant (natural protein, A. thaliana, UniProt Q9M8K6 1-202, looked up)
chain: B1 chain with R133A, R134A, E162A, E163A
notes: MUTE, A. thaliana, with R133A, R134A, E162A and E163A; source: E. coli BL21, purified (glutathione resin)

Tests used:
[1] = test system: Commelina benghalensis stomatal opening induced by light; assay: Measurement of stomatal opening; format: in vivo; conditions: leaf discs 1-6
Experimental: The experiments were performed as described previously[30],[68]. Briefly, Stomidazolone or ABA were added to a multi-well plate with basal buffer [5 mM MES/bistrispropane (pH 6.5), 50 mM KCl, and 0.1 mM CaCl2] to be diluted to a final concentration of 50 or 20 µM, respectively. C. benghalensis plants were incubated in the dark overnight; then, 4 mm diameter leaf discs were excised from fully expanded leaves using a hole punch (Biopsy Punch, Kai Medical). Samples were immersed in a basal buffer containing compounds for 30 min before being exposed to light (150 µmol m^−2 s^−1 red light and 50 µmol m^−2 s^−1 blue light) for 3 h. The stomatal apertures were observed using a stereoscopic microscope (BX43; Olympus). The microscopic images were acquired with a charge-coupled device (CCD) camera (DP27; Olympus), followed by autofocus image processing using cellSens standard software (Olympus). Measurement of stomatal apertures of C. benghalensis was performed by using an automation program, DeepStomata[69].

[2] = test system: Arabidopsis wild-type (WT) seedlings; assay: Stomatal development bioassay, seedlings in liquid culture; format: in vivo; conditions: 50 μM
Experimental: Arabidopsis accession Columbia (Col-0) was used as wild-type. […] Their genotype and transcript reduction were confirmed. The presence of transgenes/mutant alleles were confirmed by genotyping. For liquid culture with Stomidazolone (AYSJ929, compound 3), the analogs (AYSJ1059 (compound 5) and AYSJ1061 (compound 6)), degraded compound lzx103 (compound 4), and SIM3* (compound 7), all compounds were dissolved in dimethyl sulfoxide (DMSO, Molecular biology grade, Fujifilm Wako, Japan 046-21981), Col-0 seeds were sown in 96-well plates (TL5003; True Line) containing 95 μL of 1/2 MS media containing 0.5% sucrose with rotary shaking at 140 rpm under continuous light at 22 °C. Five μL of compounds were dissolved in DMSO at 10 mM and diluted with liquid 1/2 MS media to 1 mM and added on 1-day-old seedlings (final concentration, 50 μM). Seedlings were incubated for 8 days, and at day 9 seedling abaxial cotyledons were observed through confocal microscopy. For liquid culture of scrm-D_S343 and scrm-D_S423, 1/2 MS liquid media without sucrose was used. For the solid culture, 0, 20, 50 or 100 μM Stomidazolone were solidified with low-melting agarose (5805S, PrimeGelTM Agarose LMT 1-20 K, TAKARA Bio). Briefly, 1/2 MS salt, 0.5% sucrose, and 0.8% low melting agarose were mixed in water and autoclaved. After cooling the medium at around 30 °C, Stomidazolone (500x, dissolved in DMSO) was added and poured into 90 mm petri dishes (Asnol Petri Dish JP φ90 x 15 mm, 3-1491-01, AS ONE). Col-0 seeds were sown on Stomidazolone-containing 1/2 MS agarose media and grown under continuous light for 9 days.
For confocal microscopy, cell peripheries of seedlings were visualized with propidium iodide (Sigma, P4170). Images were acquired using LSM800 or LSM700 (Zeiss) using a 20x lens. The GFP, YFP reporter and PI signals were detected with excitation at 488 nm and an emission filter of 410 to 546 nm, at 488 nm and an emission filter of 410 to 546 nm, and with excitation at 561 nm and 582–617 nm emission range, respectively. Raw data were collected with 1024 × 1024 pixel images. For qualitative image presentation, Adobe Photoshop CC was used to trim and uniformly adjust the contrast/brightness.
For quantitative analysis of the abaxial leaf epidermis, confocal images were taken on the days after germination as indicated in the Figure legends. Preparation of images was done as described previously[32],[70]. For counting epidermal cell types, stomatal density, stomatal precursor cells (meristemoids), total stomata-lineage cells (stomata and meristemoids) were calculated by counting cell types in an area of 0.4 mm^2 (0.63 mm × 0.63 mm) and plotted as per mm^2. A series of Z-stack confocal images was obtained to obtain images covering the epidermis and capturing GFP/YFP signal from the reporter lines. The area and the number of epidermal cells were quantified by using FIJI-ImageJ. Statistical analyses were performed using R ver. 4.0.2. Sample sizes (n) are indicated and defined in each legend. For the multiple sample comparison, 1-way ANOVA was performed followed by a post hoc Tukey HSD test. For the two-sample comparison, Student’s T-test was performed. Graphs were generated using R ggplot2 package. For all boxplots, each box represents IQR (interquartile range), in which top, middle line, and bottom indicating 75, 50, and 25 percentiles, respectively, and the bar representing maximum to minimal values. Each magenta dot represents jittered individual data point. The datapoints that go beyond the bar are outliers, which are indicated as black dots. If the data point is greater than Q3 + 1.5*IQR (above the third quartile is greater than 1.5 times of the interquartile range) or less than Q1 − 1.5*IQR, that data point is classified as outlier. The color of Boxplot graph was based on ColorBrewer.org. The value of n, the number of each experiment or samples, the means of error bars, and how statistical significance was defined are indicated in a relevant figure legend. […]

[3] = target: T1, SCREAM (SCRM), recombinant full-length …; assay: BLI; SCRM with MUTE or MUTE mutants in the presence of Stomidazolone (3) (MUTE pre-incubated); Octet Red96, anti-GST probes loaded with 500 nM GST-tagged protein; 30 °C; 1x PBS, 2% DMSO, 0.02% Tween20; 1:1 model; KD (SS) from steady-state analysis; conditions: both partners purified
[4] = target: T1, SCREAM (SCRM), recombinant full-length …; assay: BLI; SCRM with MUTE in the presence of AYSJ1059 (5); Octet Red96, anti-GST probes loaded with 500 nM GST-tagged protein; 30 °C; 1x PBS, 2% DMSO, 0.02% Tween20; 1:1 model; KD (SS) from steady-state analysis; conditions: both partners purified
[5] = target: T1, SCREAM (SCRM), recombinant full-length …; assay: BLI; SCRM with MUTE in the presence of AYSJ1061 (6); Octet Red96, anti-GST probes loaded with 500 nM GST-tagged protein; 30 °C; 1x PBS, 2% DMSO, 0.02% Tween20; 1:1 model; KD (SS) from steady-state analysis; conditions: both partners purified
[6] = target: T1, SCREAM (SCRM), recombinant full-length …; assay: BLI; SCRM with MUTE or MUTE mutants, no compound; Octet Red96, anti-GST probes loaded with 500 nM GST-tagged protein; 30 °C; 1x PBS, 2% DMSO, 0.02% Tween20; 1:1 model; KD (SS) from steady-state analysis; conditions: both partners purified

Molecule	Kd [3] [nM]	koff [3] [s⁻¹]	kon [3] [M⁻¹ s⁻¹]	Kd [6] [nM]	koff [6] [s⁻¹]	kon [6] [M⁻¹ s⁻¹]	also measured
O=C1C(c2ccccc2)=NC(NS(=O)(=O)c2ccccc2)(c2ccccc2)N1S(=O)(=O)c1ccccc1 (racemic) [AYST929]							stomatal movement, mean from 2 images from 1 leaf disc ([1]; AYST929 50 µM): 12.3654 and 10.3065 and 11.5398 and 6.9444 and 13.0998 and 7.007
CC1=CC(=O)CC(C)(C)C1(O)/C=C/C(C)=C\C(=O)O (centres unmarked) [ABA, reference compound]							stomatal movement, value per image ([1]; ABA 20 µM, 2 images per leaf disc): 0; stomatal movement, mean from 2 images from 1 leaf disc ([1]; ABA 20 µM): 0
N=C(NS(=O)(=O)c1ccccc1)c1ccccc1 [lzx103]							effect on stomatal development (in words) ([2]; WT seedlings, liquid culture): did not cause any effects; Number of stomata per 1 mm2 of cotyledon abaxial epidermis ([2]; WT, single seedlings n=8 (Fig. S3d), listed as Izx-103): 199 per 1 mm2 and 211 per 1 mm2 and 202 per 1 mm2 and 216 per 1 mm2 and 194 per 1 mm2 and 192 per 1 mm2 and 175 per 1 mm2
B1	755 ± 9.5	0.00859	11400	6.8 ± 0.5	0.000147	24200	Kd [4]: 8.8 ± 0.6 nM; koff [4]: 0.000188 s⁻¹; kon [4]: 21300 M⁻¹ s⁻¹; Kd [5]: 12.8 ± 0.8 nM; koff [5]: 0.000234 s⁻¹; kon [5]: 18200 M⁻¹ s⁻¹
B2	62.5 ± 8.2	0.000834	13300	22.5 ± 1.8	0.000256	11300	
B3	30.5 ± 4.8	0.000634	20700	11.5 ± 2.6	0.000334	29000	
B4	96.5 ± 12.8	0.000336	3480	26.5 ± 3.7	0.000414	15600	
